Measurements published in the nanobody polyreactivity screen of Harvey et al. (2022).

Test: yeast display, Sf9 membrane polyspecificity reagent, FACS + sequencing; frameworks hold sequencing errors
In short: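 A nanobody's polyreactivity label depends on the gate it was sorted from. Yeast display cells were stained with 10% biotinylated, detergent-solubilized Sf9 membrane reagent for 1 hour at 4 °C, enriched on streptavidin microbeads and sorted by FACS. The low and high (top ~1%) gates were set on anti-HA fluorescence for expression and streptavidin fluorescence for reagent binding.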

| Sequence | polyreactivity (PSR sort gate) |
| --- | --- |
| QVQLVESGGGLVQAGGSLRLSCAASGSIFIAYGMGWYRQEPGKERELVAAITVSGGNTYYADSVKGRFTISRDNAKNTVYLQMNSLKPEDNAVYYCADVTYWQDGHRGNYWGQGTQVTVSS | low polyreactivity |
| QVQLVESGGGLVQAGGSLRLSCAASGRTFQTNAMGWYRQAPGKERELVAAISWSGGRTYYADSVKGRFTISRDNAKNTVYLQMNSLKPEDTAVYYCAARQWYRYKVRFDYCGQGTQVTVSS | high polyreactivity |
| QVQLVESGGGLVQAGGSLRLSCAASGSTFGIYDMGWYRQAPGKERELVAAITSGGDTNYADSVKGRFTISRDNAKNTVYFQKNSLKPEDTAVYYCNARDGGQGNYSARYDYWGQGTQVTVSS | low polyreactivity |
| QVQLVESGGGLDQAGGSLRLSCAASGFTLDYYTMGRYRQAPGKERELVAAISWIGTSTYYADSVKGRFTISRDNAKNTVYLQMNSLKPEDTAVYYCAAVGASVDDYYWGQGTQVTVSS | high polyreactivity |
| QVQLVESGGGLVQAGGSLRLSCAASGSTLVVYAMGRYRQAPGIERELVAAISSIGGRPYYADSVKGRFTISRDNAKYTVYLQMNSLKPEDTAVYYCTALRYVVYFDDDYWGQGTQVTVSS | high polyreactivity |
| QVQLVESGGGLDQAGGSRRLSCAASGITFGRNTMGWYRQSPGKERELVASISYSGTTTYYADSVKGRFTISPDNAKNTVYLQMNSLKPEDTAVYYCNKRWRYYDMDYWGQGTQVTVSS | low polyreactivity |
| QVQLVESGGGLVQAGGSHRLSCAASGSIFYSYAMGWYRQAPGKERELVAAITYDTGRTYYADSVKGRFTISRDNAKNTVYLQMNSLKPEDTAVYYCAVRPGYYWGYWPRFGYWGQGTQVTVSS | low polyreactivity |
| QVQLVESGGGLVQAGGSLRLSCAASGFIFVYYAMGWYRQAPGKERELVAAINQSGGRTYYADSVKGRFTISRDNAKNTVYLQMNSLKPEDTAVYYCAAESWDLYRYGQKHEYWGQGTQVTVSS | low polyreactivity |
| QVQLVESGGGLVQAGGSLRLSCAASGFTFGRYDMGWYRQAPGKERELVAAISSGGNTYYADSVKGRFTISRDNAKNTVYLQMNSLKPEDTAVNYCNARTSYYSRFDYWGQGTQVTVSS | high polyreactivity |
| QVQLVESGGGLVQAGGSLRLSCAASGFTFKYYAMGWYRPAPRKERELVADITRSGGSTYYADSVKGRFTISRDNAKNTVYLQMNSLKPEDTAGYYCAVDPVRYPYSYDYWGQGTQVTGSS | high polyreactivity |
| QVQLVESCGGLVQAGGSLRLSCAASGRIFNHNAMGWYRQAPGKEMKLVAAISWRGGSTYYADSVKGRFTISRYNAKNTVYLQRNSLKPEDTAVYYCATKPSPITYKLDYWGQGTQVTVSS | high polyreactivity |
| QVQLVESGGGLVQAGGSLRLSCAASGFTFSWYALGWYRQAPGKESELVAAINWSGTSTYYADSVKGRFTISRDNAKNTVYLQMNSLKPEDTAVYYCNVVVYRWSPVSKLDYWGQGTQVTVSS | high polyreactivity |
| QVQLEESGGCLVQAGGSLRLSCAASGYIFTPYAKGWYRPAPGKEREFVAAITRSGGSTYYADSVKGRFTISRDYAKNTVYLQMNSLKPEDTAVYYCARYANYDKRYDYWGQGTQVTVSS | high polyreactivity |
| QVQLVESGGGLVQAGGILRLSCAASGSTFAVNAMGWYRQAPGKERELVAAISTSGGSTYYADSVKGRFTISRDNAKNTVYLQMNSLKPEDTSVYDCAAGRVRRRVWYNYWGQGTQVTVSS | high polyreactivity |
| QVQLVESGGGLVQAGGSLRLSCAASGSIFFSYAMGWYRQAPGKERELVAAIDYSGGGTYYADSVKGRFTISRDNAKNTVYLQMNSLKPEDTAVYYCNSDTEVWAVTFISYRALNYWGQGTQVTVSS | low polyreactivity |
| QVQLVESGGGLVQAGGSLRLSCAPSGFIFPLYTMGWYTQAPGKERELVAAIDFSGASTYYADSVKGRFTISRDNAKNTVYLLMNSLKPEDTAVYYCATYGSYRITVFYAYYYWGQGTQVTVSS | low polyreactivity |

| Sequence | polyreactivity (PSR sort gate) |
| --- | --- |
| QVQLVESGGGLVQAGGSLRLSCAASGRIFWYNAMGWYRQAPGKERELVAGITRSGGRTYYADSVKGRFTISRDNAKNTVYLQMNSLKPEDTAVYYCAAAPYARRDYEYWGQGTQVTVSS | high polyreactivity |
| QVQLVESGGGLVQAGGSLRLSSAASGSIFWVYAMGWYRQAPGKERELVAAISNRGGSTYYADSVKGRFTISRDNAKNTVYLQMNSLKPEDTAVYYCAAVVAHHYYWGQGTQVTVSS | high polyreactivity |
| QVQLVESGGGLVQAGGSLRLSCAASGRIFYSNTMGWYRQAPGKERELVAGITSSGGSTYYADSVKGRFTISRDNAKYTVYLQMNSLKPEDTAVYYCATSSVAEAKYVTEGTFDYWGQGTQVTVSS | low polyreactivity |
| QVQLVESGGGLVQAGGSHRLSCAASGSTFPAYAMGLYRQAPGKERELVAAINTTGGNTYYADSVKGRFTISRDNAKNTVYFQMNSLKPEDTAVYYCAADYKARYSEKFDYWGQGTQVTVSS | low polyreactivity |
| QVQLVDSGGGLVQAGGRLRLSCAASGVTIQPNARGWYRQAPGKERELVPSISWSDGSTYYADSVKGRFTISRDNAKNTVFLQMNSLKPEDTAVYYCAADFTYYDPPYRDYNYESWGQGTQVTVSS | low polyreactivity |
| QVQLVESGGGLVQAGGSLRLSCAASGIIFKNYAMGWYRQAPGKERELVAAISKRGASTYYADSVKGRFTISRDNAKNTVYLQMNSLKPEDTAVYYCAAYRQGSAYDYWGQGTQVTVSS | high polyreactivity |
| QVQLVESGGGLVQAGGSLRLSCAASGIIFKGYPMGWYRPAPGKERELVAGISSGGTTYYADSVKGRFTISRDNAKITVYLQMNSLKPEDTAVYYCGAGPRRSYRFDYWGQGTQVTVSS | high polyreactivity |
| QVQLVESGGGLVQAGGSLRLSCAASGLIFLRNSMGLDRTAPGKERELVAAISRSGGSTYYADSVKGRFTISRDSAKYSGYLQMNSLKPVDTAVYYCAKYGYGGVIPGPDHFDYWVQGTQVTVSS | high polyreactivity |
| QVQLVESGGGLVQAGGSLRLSCAASGSIFSIYAMGWYRQAPGKERELVAAIDSGTSTTYADSVKGRFRISRDNAKKTVYLQMKSLKPEDTAVYYCAAALYSDVAAVATFGYYWGQGTQVTVSS | low polyreactivity |
| QVQLVETGGGLVQAGGSLRLSCAASGSIFITYLMGWNRQAPGKERELVDGISRSGGSTYYADSVKGRFTISRDNAMNTVYLQMNSLKPEDTAVYYCAAFFLRRPGSSGLRLLGQGTQVTVSS | high polyreactivity |
| QVQLVESGGGLVQAGGILRLICAASGRIFKLNALGWYRQAPGKERELDAAITFSGGSTYYADSVKGRFRISRDNVNYTVYLQMNSMKPEYTGVYYCNAEFSNVELYYWGQGTHVTVSS | low polyreactivity |
| QVQLVESGGGLVQAGGSLRLTSADSGSTFSFSAMRWYRQAPGKERELVAAIRSSVGSTYYADSVKGRFTISRDNAKNTVYLQMNSLKPEDTAVYNCAATTHWFRSYREFYYWGQGTQVTVSS | high polyreactivity |
| QVQLVESGGGLVQAGGSLRLSCAASGIIFYSYAMGWYRQAPGKERELVAAISWSGGSTYYADSVKGRFTISRDNAKNTVYLQMNSLKPEDTAVYYCAKDGYPYLSWLRSAHYDYWGQGTQVTVSS | low polyreactivity |
| QVQIVESGRGLVQAGGSLRLSCAASGSIFKKYAMGWYRQAPGKERELVAAISSRGGRTYYADSVKGRFTISRDNAKNTVYLQMNSLKPEDTAVYYCNTDISQPGAYDYWGQGTQVTVSS | high polyreactivity |
| QVQLVESGGGLVKAGGSLRLSCAATGFTLSWYDMGWYRPAPGKERELVATISRGGITYYADSVKGRFTISRDNAKNTVYLQMNSLKPEDTAVYYCAADYRYGWYRYDYWGQGTQVTVSS | high polyreactivity |
